Data taken from paper PMC2120686.
“And” between values parts separate entries of the source, which are not always exact repeats. Equal entries are not always repeated. One block for each substance: values may come before it.

Columns and labels:
[1] = target: titin (rabbit); experiment: ELISA
[2] = target: titin (rabbit); experiment: light scattering
[3] = target: dansylated LMM (rabbit); experiment: fluorescence polarisation
[4] = target: light meromyosin (LMM) (rabbit); experiment: electron microscopy
[5] = target: J peptide (15-kD CNBr fragment of LMM) (rabbit); experiment: ELISA
[6] = target: K peptide (30-kD CNBr fragment of LMM) (rabbit); experiment: ELISA
[7] = target: light meromyosin (LMM) (rabbit); experiment: ELISA

maximum inhibition of titin binding to LMM [1]: 60%
Substance: J peptide (15-kD CNBr fragment of LMM) (domain or fragment)

stoichiometry N [2]: 25 to 50
Substance: light meromyosin (LMM) (domain or fragment)

Substance: titin (natural protein)
Kd [3]: 15 nM
molecular-binding constant [3]: 400 nM
percent of molecules closely associated [4]: 20%
Kd [5]: 30 nM and 20 nM
fold lower affinity than the 15-kD peptide [6]: 100 fold
Kd [7]: 12 nM
